The values below are quoted from earlier work in publication PMC9760423.

Data set [1] deals with Cdc4 (Saccharomyces cerevisiae) (UniProt P07834).
A further data set deals with 4E-BP2 (Homo sapiens) (UniProt Q13542).
Sequence of UniProt Q13542 (Q13542 whole entry): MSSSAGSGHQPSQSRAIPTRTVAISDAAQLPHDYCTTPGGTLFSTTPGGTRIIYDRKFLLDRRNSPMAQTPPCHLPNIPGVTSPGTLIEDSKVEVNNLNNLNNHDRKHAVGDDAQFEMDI

Sequence of UniProt P07834 (P07834 whole entry): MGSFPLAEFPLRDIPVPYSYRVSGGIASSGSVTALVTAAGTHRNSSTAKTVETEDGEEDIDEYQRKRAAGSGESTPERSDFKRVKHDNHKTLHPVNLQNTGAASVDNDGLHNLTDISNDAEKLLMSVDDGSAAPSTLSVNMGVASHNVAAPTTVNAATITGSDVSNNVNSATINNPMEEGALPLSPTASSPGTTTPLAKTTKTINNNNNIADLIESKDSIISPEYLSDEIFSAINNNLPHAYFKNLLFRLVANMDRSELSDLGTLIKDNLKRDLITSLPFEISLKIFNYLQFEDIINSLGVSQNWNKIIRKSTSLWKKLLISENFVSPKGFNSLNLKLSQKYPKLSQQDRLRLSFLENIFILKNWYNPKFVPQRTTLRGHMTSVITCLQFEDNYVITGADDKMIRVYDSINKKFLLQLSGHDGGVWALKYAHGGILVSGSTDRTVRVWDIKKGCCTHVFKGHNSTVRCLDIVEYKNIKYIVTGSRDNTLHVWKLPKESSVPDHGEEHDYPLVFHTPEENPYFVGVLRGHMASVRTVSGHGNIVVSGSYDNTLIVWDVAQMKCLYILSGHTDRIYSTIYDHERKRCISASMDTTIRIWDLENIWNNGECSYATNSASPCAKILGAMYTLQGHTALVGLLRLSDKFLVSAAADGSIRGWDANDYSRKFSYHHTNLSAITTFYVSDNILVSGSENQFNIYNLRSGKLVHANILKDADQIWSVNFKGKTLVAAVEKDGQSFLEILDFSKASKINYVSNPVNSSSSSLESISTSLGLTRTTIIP

As to Sic1 (from UniProt P38634), in data set [1], the dissociation constant Kd was 1000 nM. With eIF4E (from UniProt P06730), the dissociation constant Kd with 4E-BP2 (Homo sapiens) is 3.2 nM.

What is called Kd is the equilibrium constant for the complex coming apart.
